Assay [1] deals with Klebsiella quasipneumoniae Qmp M1-977 TolC (KqTolC), recombinant, C-terminal His6 (Klebsiella quasipneumoniae). Put plainly: ITC + other: stopped-flow fluorescence; koff not measured (too slow): estimated from the Kd by ITC and the kon by stopped-flow, assuming Kd = koff/kon.
Assay [2] shares this target. Put plainly: ITC; KlebC constructs in the syringe (76-89 µM), TolC trimer in the cell (5-7.6 µM); 25 mM Tris-HCl pH 7.5, 1% (w/v) β-OG; no feedback mode, 750 s between injections; single set of identical sites. For orientation: Isothermal titration calorimetry measures the heat released or taken up as one component is titrated into another.
Assay [3] shares this target. Put plainly: stopped-flow fluorescence (pre-equilibrium, tryptophan emission); 0.5 µM KqTolC with excess KlebC_(1-254), pseudo-first-order, 25 °C; kapp from single exponential fits, kon from the gradient of kapp against concentration.
For assay [4], the target named is TolC of Klebsiella quasipneumoniae Qmp M1-977, endogenous (Klebsiella quasipneumoniae (endogenous in K. quasipneumoniae Qmp M1-977)).
Assay [5] has as its target Klebsiella quasipneumoniae Qmp M1-977 TolC (KqTolC), recombinant, C-terminal His6 (Klebsiella quasipneumoniae). The assay can be described thus: cryo-EM structure; KqTolC-KlebC_(1-254) mixed in β-OG and transferred into amphipol A8-35 without cross-linking; only KqTolC resolved; 3.4 Å.
Assay [6] has the same target. Put plainly: stopped-flow fluorescence (pre-equilibrium, loss of Trp-to-AEDANS FRET); TolC in excess, pseudo-first-order, 25 °C; single exponential fits.
For assay [7] the target is unchanged. Put plainly: stopped-flow fluorescence (pre-equilibrium, loss of Trp-to-AEDANS FRET); Q204C^AEDANS KlebC_(1-254) in excess, pseudo-first-order, 25 °C; single exponential fits.
The target is the same in assay [8]. Put plainly: equilibrium fluorescence (Trp-to-AEDANS FRET within KlebC); 1 µM Q204C^AEDANS KlebC_(1-254) without and with 1 µM KqTolC trimer; excitation 280 nm, FRET signal at 490 nm, 25 °C.

As for KlebC_(1-254) (domain or fragment), the koff (in general, a measure of how fast the partners let go of each other) in assay [1] was 5e-05 s⁻¹. For the same substance, in assay [2], the Kd (as a rule, the constant that tells how readily two partners part at equilibrium) is 35 nM; the dH is 30.6 kcal/mol; the stoichiometry N (binding sites per TolC trimer) was 0.9. Further, in assay [3], the kon (commonly a measure of how fast the partners come together) was found to be 1900 M⁻¹ s⁻¹.

As to KlebC_(51-254) (domain or fragment), the growth of K. quasipneumoniae on LB-Agar with 1 mg ml^−1 Rhodamine 6G after serial dilution in 1 or 10 µM KlebC (51-254) in assay [4] was determined as 4 log. In addition, in assay [2], the Kd stood at 368 nM, the dH came to 20.8 kcal/mol and the stoichiometry N (binding sites per TolC trimer) is 1.34.

On to “Klebsiella quasipneumoniae Qmp M1-977 TolC (KqTolC), recombinant, C-terminal His6 (natural protein)”, for which the stoichiometry N (usually the number of molecules, sites or subunits per partner or assembly) in assay [5] turned out to be 3.

Take “Q204C^AEDANS KlebC_(1-254) (domain or fragment)”: the values for the kon in assay [6] and in assay [7] were 6700 M⁻¹ s⁻¹ and 2900 M⁻¹ s⁻¹, respectively. Also, in assay [8], the decrease of the Trp-to-AEDANS FRET signal at 490 nm upon addition of equimolar TolC trimer stood at 77%.

The values above are taken from PMC8324772.
